Laboratory results published in patent US20220372155A1 (LYVGEN BIOPHARMA, published 2022).

B1: Ly616 (bispecific antibody, human IgG1, kappa)
heavy: QVQLQQPGAELVKPGASVKLSCKASGYTFTSYWMHWVKQRPGQGLEWIGMIHPNSGGTNYNEKFKGKGTLTVDKSSSTAYMQLSSLTSDDSAVYYCVTSQATWFAYWGQGTLVTVSAASTKGPSVFPLAPSSKSTSGGTAALGCLVKDYFPEPVTVSWNSGALTSGVHTFPAVLQSSGLYSLSSVVTVPSSSLGTQTYICNVNHKPSNTKVDKKVEPKSCDKTHTCPPCPAPELLGPSVFLFPPKPKDTLMISRTPEVTCVVVDVSHEDPEVKFNWYVDGVEVHNAKTKPREEQYNSTYRVVSVLTVLHQDWLNGKEYKCKVSNKALPAPIEKTISKAKGQPREPQVYTLPPSREEMTKNQVSLTCLVKGFYPSDIAVEWESNGQPENNYKTTPPVLDSDGSFFLYSKLTVDKSRWQQGNVFSCSVMHEALHNHYTQKSLSLSPGGGGGSGGGGSGGGGSGGGGSDIQMTQSPSSLSASVGDRVTITCLASEDISNDLAWYQQKPGKAPKLLIYFVDRLLDGVPSRFSGSGSGTDFTLTISSLQPEDFATYYCQQSYKYPPTFGQGTKLEIKGGGGSGGGGSGGGGSGGGGSEVQLVESGGGLVQPGGSLRLSCAASGFTFTNYGLHWVRQAPGKGLEWVSSISPSGGVTYYRDSVKGRFTISRDNSKNTLYLQMNSLRAEDTAVYYCAKPFLGWGGANWIAHWGQGTLVTVSS
light: ENVLTQSPAIMSVSPGEKVTMTCRASSSVSSSYLHWYQQKSGASPKFWIYSTSNLASGVPARFSGSGSGTSYSLTISSVEAEDAATYYCQHYSGYPLTFGAGTKLELRRTVAAPSVFIFPPSDEQLKSGTASVVCLLNNFYPREAKVQWKVDNALQSGNSQESVTEQDSKDSTYSLSSTLTLSKADYEKHKVYACEVTHQGLSSPVTKSFNRGEC
notes: Ly387 HC (IgG1 mutated Fc)-TM559 scFv VL-VH + Ly387 LC
B2: Ly617 (bispecific antibody, human IgG1, kappa)
heavy: QVQLQQPGAELVKPGASVKLSCKASGYTFTSYWMHWVKQRPGQGLEWIGMIHPNSGGTNYNEKFKGKGTLTVDKSSSTAYMQLSSLTSDDSAVYYCVTSQATWFAYWGQGTLVTVSAASTKGPSVFPLAPSSKSTSGGTAALGCLVKDYFPEPVTVSWNSGALTSGVHTFPAVLQSSGLYSLSSVVTVPSSSLGTQTYICNVNHKPSNTKVDKKVEPKSCDKTHTCPPCPAPELLGPSVFLFPPKPKDTLMISRTPEVTCVVVDVSHEDPEVKFNWYVDGVEVHNAKTKPREEQYNSTYRVVSVLTVLHQDWLNGKEYKCKVSNKALPAPIEKTISKAKGQPREPQVYTLPPSREEMTKNQVSLTCLVKGFYPSDIAVEWESNGQPENNYKTTPPVLDSDGSFFLYSKLTVDKSRWQQGNVFSCSVMHEALHNHYTQKSLSLSPGGGGGSGGGGSGGGGSGGGGSEVQLVESGGGLVQPGGSLRLSCAASGFTFTNYGLHWVRQAPGKGLEWVSSISPSGGVTYYRDSVKGRFTISRDNSKNTLYLQMNSLRAEDTAVYYCAKPFLGWGGANWIAHWGQGTLVTVSSGGGGSGGGGSGGGGSGGGGSDIQMTQSPSSLSASVGDRVTITCLASEDISNDLAWYQQKPGKAPKLLIYFVDRLLDGVPSRFSGSGSGTDFTLTISSLQPEDFATYYCQQSYKYPPTFGQGTKLEIK
light: B1 light
notes: Ly387 HC (IgG1 mutated Fc)-TM559 scFv VH-VL + Ly387 LC
B3: Ly519 (bispecific antibody, human IgG1, kappa)
heavy: QVTLKESGPALVKPTQTLTLTCTFSGFSLSTSGTCVSWIRQPPGKALEWLATICWEDSKGYNPSLKSRLTISKDTSKNQAVLTMTNMDPVDTATYYCARREDSGYFWFPYWGQGTLVTVSSASTKGPSVFPLAPSSKSTSGGTAALGCLVKDYFPEPVTVSWNSGALTSGVHTFPAVLQSSGLYSLSSVVTVPSSSLGTQTYICNVNHKPSNTKVDKKVEPKSCDKTHTCPPCPAPELLGPSVFLFPPKPKDTLMISRTPEVTCVVVDVSHEDPEVKFNWYVDGVEVHNAKTKPREEQYNSTYRVVSVLTVLHQDWLNGKEYKCKVSNKALPAPIEKTISKAKGQPREPQVYTLPPSREEMTKNQVSLTCLVKGFYPSDIAVEWESNGQPENNYKTTPPVLDSDGSFFLYSKLTVDKSRWQQGNVFSCSVMHEALHNHYTQKSLSLSPGK
light: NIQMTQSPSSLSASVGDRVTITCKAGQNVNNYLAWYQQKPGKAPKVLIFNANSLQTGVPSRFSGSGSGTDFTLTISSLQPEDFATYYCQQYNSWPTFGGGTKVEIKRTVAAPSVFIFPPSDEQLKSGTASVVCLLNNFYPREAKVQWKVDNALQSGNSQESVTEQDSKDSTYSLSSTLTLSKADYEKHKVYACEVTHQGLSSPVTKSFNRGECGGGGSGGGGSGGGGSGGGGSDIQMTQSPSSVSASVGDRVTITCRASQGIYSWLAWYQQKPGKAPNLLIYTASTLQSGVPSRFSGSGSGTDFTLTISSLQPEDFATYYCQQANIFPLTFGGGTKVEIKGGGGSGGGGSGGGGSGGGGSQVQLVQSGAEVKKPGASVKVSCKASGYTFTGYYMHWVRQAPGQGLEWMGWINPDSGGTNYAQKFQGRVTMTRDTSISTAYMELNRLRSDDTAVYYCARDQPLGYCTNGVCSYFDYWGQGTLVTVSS
notes: Ly516 HC (IgG1 mutated Fc) + Ly516 LC-Ly253 scFv VL-VH
B4: Ly520 (bispecific antibody, human IgG1, kappa)
heavy: B3 heavy
light: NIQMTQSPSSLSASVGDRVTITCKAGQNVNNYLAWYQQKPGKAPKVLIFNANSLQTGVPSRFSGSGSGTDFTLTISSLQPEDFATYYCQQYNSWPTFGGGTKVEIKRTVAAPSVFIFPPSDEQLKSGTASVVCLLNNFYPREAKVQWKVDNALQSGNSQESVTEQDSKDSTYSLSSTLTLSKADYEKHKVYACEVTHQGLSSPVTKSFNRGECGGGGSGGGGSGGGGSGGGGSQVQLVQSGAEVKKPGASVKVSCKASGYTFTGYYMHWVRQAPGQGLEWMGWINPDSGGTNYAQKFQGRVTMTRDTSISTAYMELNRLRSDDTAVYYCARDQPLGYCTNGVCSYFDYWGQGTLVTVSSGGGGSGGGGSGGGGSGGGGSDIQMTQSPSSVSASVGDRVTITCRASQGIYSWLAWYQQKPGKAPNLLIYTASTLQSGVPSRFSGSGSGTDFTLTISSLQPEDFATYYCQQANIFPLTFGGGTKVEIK
notes: Ly516 HC (IgG1 mutated Fc) + Ly516 LC-Ly253 scFv VH-VL
B5: Ly517 (bispecific antibody, human IgG1, kappa)
heavy: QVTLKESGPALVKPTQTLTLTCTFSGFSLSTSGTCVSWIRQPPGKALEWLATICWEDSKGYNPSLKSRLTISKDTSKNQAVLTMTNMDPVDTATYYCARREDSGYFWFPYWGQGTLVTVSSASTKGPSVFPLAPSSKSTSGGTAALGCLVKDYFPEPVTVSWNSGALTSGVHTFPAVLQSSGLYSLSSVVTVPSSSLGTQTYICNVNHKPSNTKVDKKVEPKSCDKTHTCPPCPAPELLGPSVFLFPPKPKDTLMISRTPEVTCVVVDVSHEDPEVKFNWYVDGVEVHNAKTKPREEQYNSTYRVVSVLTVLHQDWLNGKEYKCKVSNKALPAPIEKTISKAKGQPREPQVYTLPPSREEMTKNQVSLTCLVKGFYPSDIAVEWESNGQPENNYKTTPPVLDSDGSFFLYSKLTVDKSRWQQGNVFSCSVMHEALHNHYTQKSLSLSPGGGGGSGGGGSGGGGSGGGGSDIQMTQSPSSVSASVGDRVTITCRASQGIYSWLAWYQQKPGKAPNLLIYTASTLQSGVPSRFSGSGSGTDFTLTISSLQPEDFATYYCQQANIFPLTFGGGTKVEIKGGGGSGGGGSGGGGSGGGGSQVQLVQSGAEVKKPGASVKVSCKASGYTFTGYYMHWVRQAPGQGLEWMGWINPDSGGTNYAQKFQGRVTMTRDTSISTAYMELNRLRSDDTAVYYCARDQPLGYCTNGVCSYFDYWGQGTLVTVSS
light: NIQMTQSPSSLSASVGDRVTITCKAGQNVNNYLAWYQQKPGKAPKVLIFNANSLQTGVPSRFSGSGSGTDFTLTISSLQPEDFATYYCQQYNSWPTFGGGTKVEIKRTVAAPSVFIFPPSDEQLKSGTASVVCLLNNFYPREAKVQWKVDNALQSGNSQESVTEQDSKDSTYSLSSTLTLSKADYEKHKVYACEVTHQGLSSPVTKSFNRGEC
notes: Ly516 HC (IgG1 mutated Fc)-Ly253 scFv VL-VH + Ly516 LC
B6: Ly518 (bispecific antibody, human IgG1, kappa)
heavy: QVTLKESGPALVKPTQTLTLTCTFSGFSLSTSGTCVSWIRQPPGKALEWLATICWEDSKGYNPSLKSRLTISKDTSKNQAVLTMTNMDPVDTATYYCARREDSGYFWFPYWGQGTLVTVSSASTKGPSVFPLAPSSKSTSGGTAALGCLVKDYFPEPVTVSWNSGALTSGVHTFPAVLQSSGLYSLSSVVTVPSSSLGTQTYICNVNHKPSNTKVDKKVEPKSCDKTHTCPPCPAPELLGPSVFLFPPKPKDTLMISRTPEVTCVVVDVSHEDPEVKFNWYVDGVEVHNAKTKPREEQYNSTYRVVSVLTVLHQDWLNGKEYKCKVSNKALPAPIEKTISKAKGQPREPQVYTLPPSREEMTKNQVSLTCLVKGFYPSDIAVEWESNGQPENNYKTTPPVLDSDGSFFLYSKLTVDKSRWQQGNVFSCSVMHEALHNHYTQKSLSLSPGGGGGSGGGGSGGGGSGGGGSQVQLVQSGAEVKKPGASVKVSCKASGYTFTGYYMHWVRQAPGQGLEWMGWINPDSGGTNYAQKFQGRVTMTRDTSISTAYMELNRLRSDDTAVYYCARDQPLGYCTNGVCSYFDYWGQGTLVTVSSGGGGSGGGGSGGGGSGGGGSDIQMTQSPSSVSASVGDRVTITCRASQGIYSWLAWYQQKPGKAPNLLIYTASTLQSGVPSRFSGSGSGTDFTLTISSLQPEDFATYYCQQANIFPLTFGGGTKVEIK
light: B5 light
notes: Ly516 HC (IgG1 mutated Fc)-Ly253 scFv VH-VL + Ly516 LC
B7: Ly606 (bispecific antibody, human IgG1, kappa)
heavy: QVTLKESGPALVKPTQTLTLTCTFSGFSLSTSGTCVSWIRQPPGKALEWLATICWEDSKGYNPSLKSRLTISKDTSKNQAVLTMTNMDPVDTATYYCARREDSGYFWFPYWGQGTLVTVSSASTKGPSVFPLAPSSKSTSGGTAALGCLVKDYFPEPVTVSWNSGALTSGVHTFPAVLQSSGLYSLSSVVTVPSSSLGTQTYICNVNHKPSNTKVDKKVEPKSCDKTHTCPPCPAPELLGPSVFLFPPKPKDTLMISRTPEVTCVVVDVSHEDPEVKFNWYVDGVEVHNAKTKPREEQYNSTYRVVSVLTVLHQDWLNGKEYKCKVSNKALPAPIEKTISKAKGQPREPQVYTLPPSREEMTKNQVSLTCLVKGFYPSDIAVEWESNGQPENNYKTTPPVLDSDGSFFLYSKLTVDKSRWQQGNVFSCSVMHEALHNHYTQKSLSLSPGGGGGSGGGGSGGGGSGGGGSDIQMTQSPSSLSASVGDRVTITCKASQNIYIYLNWYQQKPGKAPKLLIYNTNNLQTGVPSRFSGSGSGTDFTLTISSLQPEDFATYYCLQHSSRRTFGGGTKVEIKGGGGSGGGGSGGGGSGGGGSQVQLVESGGGLVQPGGSLKLSCATSGFNFNDYFMNWVRQASGKGLEWVGQIRNKNYNYATYYTESLEGRVTISRDDSKNTAYLQMNSLKTEDTAVYYCTSYYYDGFADYFDYWGQGTTVTVSS
light: B5 light
notes: Ly516 HC (IgG1 mutated Fc)-TM740 scFv VL-VH + Ly516 LC
B8: Ly607 (bispecific antibody, human IgG1, kappa)
heavy: QVTLKESGPALVKPTQTLTLTCTFSGFSLSTSGTCVSWIRQPPGKALEWLATICWEDSKGYNPSLKSRLTISKDTSKNQAVLTMTNMDPVDTATYYCARREDSGYFWFPYWGQGTLVTVSSASTKGPSVFPLAPSSKSTSGGTAALGCLVKDYFPEPVTVSWNSGALTSGVHTFPAVLQSSGLYSLSSVVTVPSSSLGTQTYICNVNHKPSNTKVDKKVEPKSCDKTHTCPPCPAPELLGPSVFLFPPKPKDTLMISRTPEVTCVVVDVSHEDPEVKFNWYVDGVEVHNAKTKPREEQYNSTYRVVSVLTVLHQDWLNGKEYKCKVSNKALPAPIEKTISKAKGQPREPQVYTLPPSREEMTKNQVSLTCLVKGFYPSDIAVEWESNGQPENNYKTTPPVLDSDGSFFLYSKLTVDKSRWQQGNVFSCSVMHEALHNHYTQKSLSLSPGGGGGSGGGGSGGGGSGGGGSQVQLVESGGGLVQPGGSLKLSCATSGFNFNDYFMNWVRQASGKGLEWVGQIRNKNYNYATYYTESLEGRVTISRDDSKNTAYLQMNSLKTEDTAVYYCTSYYYDGFADYFDYWGQGTTVTVSSGGGGSGGGGSGGGGSGGGGSDIQMTQSPSSLSASVGDRVTITCKASQNIYIYLNWYQQKPGKAPKLLIYNTNNLQTGVPSRFSGSGSGTDFTLTISSLQPEDFATYYCLQHSSRRTFGGGTKVEIK
light: B5 light
notes: Ly516 HC (IgG1 mutated Fc)-TM740 scFv VH-VL + Ly516 LC

Target: T1, human CD40 expressed on CHO cells (human, UniProt P25942 21-277)
T1 construct: whole, on cells; also used for the reporter cells over-expressing human CD40; also called cellular CD40; CHO-CD40 cells
Test: FACS, CHO cells

T1 sequence (P25942 21-277): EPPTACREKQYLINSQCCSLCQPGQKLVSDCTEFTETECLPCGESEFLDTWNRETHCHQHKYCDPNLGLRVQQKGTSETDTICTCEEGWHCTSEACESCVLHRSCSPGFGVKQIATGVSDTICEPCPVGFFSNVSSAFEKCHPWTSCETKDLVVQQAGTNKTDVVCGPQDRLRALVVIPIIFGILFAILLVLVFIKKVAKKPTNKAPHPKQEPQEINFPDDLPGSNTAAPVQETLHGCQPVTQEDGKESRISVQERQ

Binding result, binds:
B1
B2
B3
B4
B5
B6
B7
B8

Target: T2, human PD-1 expressed on CHO cells (human, UniProt Q15116 25-288)
T2 construct: whole, on cells; also used for human PD-1 on Jurkat reporter cells; also called Jurkat/NFkB-Luci/PD-1 cells
Test: FACS, CHO cells

T2 sequence (Q15116 25-288): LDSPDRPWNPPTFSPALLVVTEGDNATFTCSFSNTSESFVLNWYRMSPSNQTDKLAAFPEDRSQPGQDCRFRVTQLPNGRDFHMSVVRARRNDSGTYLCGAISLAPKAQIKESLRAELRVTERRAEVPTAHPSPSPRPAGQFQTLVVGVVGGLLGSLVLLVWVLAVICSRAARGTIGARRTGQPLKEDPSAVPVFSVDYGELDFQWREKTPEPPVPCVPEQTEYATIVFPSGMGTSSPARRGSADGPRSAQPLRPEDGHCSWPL

Binding result, binds:
B3
B4
B5
B6
B7
B8

Target: T3, Human CD40 ECD protein (mouse IgG2a Fc tag) (human, UniProt P25942 21-193)
T3 construct: extracellular domain; also called Human CD40-msFc; human recombinant CD40; not shown: mouse IgG2a Fc tag
Test: bridging ELISA, coated B7H3-His, soluble CD40-msFc
Method: Anti-B7H3/CD40 bi-specific antibodies were analyzed by ELISA for their simultaneous binding to recombinant human B7H3 and human CD40. Briefly, Human B7H3 CD protein (His-tag) was diluted and coated onto an ELISA plate with a volume of […] by incubation at 4° C. overnight. The next day, the plate was blocked with PBST-BSA buffer, then serially diluted samples of anti-B7H3/CD40 bi-specific antibodies were pipetted into appropriate wells at 50 μL/well, and the plate was incubated for 1 h followed by washing. Human CD40-msFc antibody was added into the plate at 50 μL/well. After 1-hour incubation at room temperature, […] anti-Mouse IgG (H+L) antibody was added into the plate at 100 μL/well. The plate was incubated for 1 hour at room temperature followed by washing. TMB substrate solution was added at 100 p L/well and the color development was stopped by adding 100 uUwell Stop Solution (2N H2SO4). Absorbance at 450 nm and 620 nm was read by Tecan F200 Pro plate reader. GraphPad 7.0, “[Agonist] vs. response—Variable slope (four parameters)” was used to plot the binding data and calculate binding EC50 values.

T3 sequence (P25942 21-193): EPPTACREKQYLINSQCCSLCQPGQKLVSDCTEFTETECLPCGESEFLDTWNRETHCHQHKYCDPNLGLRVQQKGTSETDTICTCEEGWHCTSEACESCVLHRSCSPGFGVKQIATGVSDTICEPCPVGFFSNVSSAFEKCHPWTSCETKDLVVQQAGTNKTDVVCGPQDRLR

Binding result, binds:
B1
B2

Target: T4, Ly090 (human CD40 ECD protein with His tag) (human, UniProt P25942 21-193)
T4 construct: extracellular domain; also called human CD40 ECD protein (His tag); recombinant human CD40; not shown: His tag
Test: bridging ELISA, coated CD40 ECD-His, soluble PD-1 ECD-mFc
Method: (§1) Briefly, human CD40 ECD protein (His tag) was diluted and coated onto an ELISA plate with a volume of […] by incubation at 4° C. overnight. […] After 1-hour incubation at room temperature, HRP-conjugated anti-Mouse IgG (H+L) antibody was added into the plate at 100 μL/well. The plate was incubated for 1 hour at room temperature followed by washing. TMB substrate solution was added at 100 μL/well and the color development was stopped by adding 100 uL/well Stop Solution (2N H2SO4). Absorbance at 450 nm and 620 nm was read by Tecan F200 Pro plate reader. GraphPad 7.0, “[Agonist] vs. response—Variable slope (four parameters)” was used to plot the binding data and calculate binding EC50 values.

T4 sequence (P25942 21-193): as above

Binding result, binds:
B3
B4
B5
B6
B7
B8

Target: T5, Human PD-1-ECD protein (mouse IgG2a Fc tag) (human, UniProt Q15116 25-170)
T5 construct: extracellular domain; also called soluble human recombinant PD-1; not shown: mouse IgG2a Fc tag
Test: as above
Method: as §1

T5 sequence (Q15116 25-170): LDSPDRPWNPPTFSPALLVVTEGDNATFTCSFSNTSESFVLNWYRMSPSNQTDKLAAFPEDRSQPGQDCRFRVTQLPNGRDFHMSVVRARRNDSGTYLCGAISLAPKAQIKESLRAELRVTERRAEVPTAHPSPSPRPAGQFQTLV

Binding result, binds:
B3
B4
B5
B6
B7
B8
